The subject of one test is HT1080 fibrosarcoma. The test is described as follows: HT1080 invasion through matrigel. It is filed as cell-based, human. Particulars: 50 μg/ml. The procedure:
Cell migration and invasion. The cell migration assay was conducted using transwell migration chambers (8 μm pore size, Costar) in 10% serum-containing medium (2,14). Briefly, the membranes were coated on both sides with 40 μg/ml GST or with the β2 integrin ligand peptide […]-GST fusion (GST-LLG-C4) and blocked with complete medium. THP-1 cells (50 000/100 μl) were preincubated with the peptides for 1 h in serum-containing medium. The cells were allowed to migrate for 16 h and were then stained with crystal violet and counted (14). The HT1080 (20 000 cells/I100 μl) invasion assay was performed as the THP-1 migration, except that matrigel coated transwells (BD Biosciences) were used.

The test system of test [1] is MMP-9 CBD, vitronectin, β5 I-EGF2+3, C domain of MMP-2. The test is described as follows: β5 I-EGF2+3 binding assay, other immobilized proteins. On the procedure: (§1) B5 I-EGF2+3 binding assay. MMP-9 C domain, MMP-2 C domain, CBD, β5 I-EGF2+3 or vitronectin (2 μg/ml) were immobilized in microtiter wells. Biotinylated β5 I-EGF2+3 fragment (2.5 μg/ml) was added to the wells which were preincubated with the competitors for 30 min in 1% BSA-PBST and then incubated further for one hour. Bound biotinylated protein was detected with streptavidin-peroxidase.

The next test addresses T1, MMP-9 C domain (Homo sapiens, UniProt P14780).
T1 construct: MMP-9 (Asp^494-Asp^688) were expressed as described (16); made in house; host or cells: E. coli (β5 fragment)
T1 sequence (P14780 513-707 limits assumed): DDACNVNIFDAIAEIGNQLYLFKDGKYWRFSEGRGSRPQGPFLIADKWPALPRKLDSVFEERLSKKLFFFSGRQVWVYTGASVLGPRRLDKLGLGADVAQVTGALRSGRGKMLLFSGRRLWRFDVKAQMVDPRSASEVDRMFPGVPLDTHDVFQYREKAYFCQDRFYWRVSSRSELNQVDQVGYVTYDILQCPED
Briefly: β5 I-EGF2+3 binding assay, MMP-9 C domain. On the procedure: as §1

Test [2] deals with β5 integrin-transfected CS-1 melanoma cells. The test is described as follows: 125I-C domain binding to cells. It is filed as cell-based, hamster. Particulars: for Competition of 125I-labelled MMP-9 C domain binding to β5 integrin-transfected CS-1 cells: unlabelled proteins 50 μg/ml, peptides 50 μM. On the procedure: ^125I-C domain binding to cells. The MMP-9 C domain was labelled with ^125I to a specific activity 0.06 μCi/pmol. The labelled domain retained 40% of the CRV peptide-binding activity as shown by the phage-binding assay. […] After a preincubation of 1.5×10^6 cells in a 200 μl volume on ice for 30 min with the competitors, ^125I-labelled C domain (1×10^6 cpm) was added and incubated for three hours on ice. The cells were transferred to tubes containing 200 μl of dibutyl phthalate/cyclohexane mixture (23:2 vol/vol), centrifuged 7500×g for 10 minutes and snap-frozen (24). The bottom of the tube containing the cells were cut and analyzed with a gamma-counter.

Test [3] deals with THP-1 cells. The test is described as follows: THP-1 cell binding to immobilized KIM127 antibody. It is filed as cell-based, human. On the procedure: (§2) Cell adhesion. HT1080 cells were allowed to adhere on vitronectin or fibronectin (2 μg/ml) in the presence or absence of peptides (200 μM), proteins (40 μg/ml) or a monoclonal anti-αvβ5 integrin antibody P1F6 (Chemicon) or a control antibody (25 μg/ml). The adhesion was quantified as described (14). Adhesion of THP-1 cells to immobilized KIM127 or control monoclonal antibodies (2 μg/ml) was done in the presence or absence of soluble proteins (50 μg/ml) or antibodies (25 μg/ml).

For test [4], the system named is THP-1 cells. The test is described as follows: THP-1 cell binding to antibody R3F9C. It is filed as cell-based, human. Particulars: not shown. On the procedure: as §2
The subject of a further test is HT1080 cells. Briefly: HT1080 cell adhesion to vitronectin or fibronectin. The class given is cell-based, human. Particulars: proteins 40 μg/ml, CRV peptide 200 μM. The procedure:
as §2

The text below walks through data of patent publication US20070207967A1, “Peptide Inhibitors of Matrix Metalloproteinase Activity” (CTT CANCER TARGETING TECHNOLOGIES OY, priority 2004, published 2007).

B1: β5 I-EGF2+3: integrin β5 I-EGF2+3 fragment (Glu476-Asn563) with N-terminal His6-tag (protein)
chain: ECQDGENQSVYQNLCREAEGKPLCSGRGDCSCNQCSCFESEFGKIYGPFCECDNFSCARNKGVLCSGHGECHCGECKCHAGYIGDNCN
modifications: left off: small tags and cut ends
notes: integrin β5 I-EGF2+3 fragment (Glu476-Asn563) with N-terminal His6-tag
As to B1, the “Inhibition of HT1080 invasion through matrigel by integrin and MMP domains” value (“Inhibition … by integrin and MMP domains” for short) in the test on HT1080 fibrosarcoma is “inhibited HT1080 invasion with a similar potency”. In test [1], the “Binding of β5 I-EGF2+3 to MMP-9 CBD, vitronectin, itself or the C domain of MMP-2” value was “did not bind”. The “Competition of biotinylated β5 I-EGF2+3 binding to the MMP-9 C domain” value in the test with MMP-9 C domain is “inhibited”. For the same molecule, in the test with MMP-9 C domain (2.5 μg/ml), the “Binding of biotinylated β5 I-EGF2+3 to the MMP-9 C domain” value is “specifically bound”. Besides, the “Competition of 125I-labelled MMP-9 C domain binding to β5 integrin-transfected CS-1 cells” value in test [2] is on record as “competed”.

B2: CBD: recombinant collagen binding domain of MMP-9 (Gly204-Gly373) (protein)
chain: GNADGAACHFPFIFEGRSYSACTTDGRSDGLPWCSTTANYDTDDRFGFCPSERLYTQDGNADGKPCQFPFIFQGQSYSACTTDGRSDGYRWCATTANYDRDKLFGFCPTRADSTVMGGNSAGELCVFPFTFLGKEYSTCTSEGRGDGRLWCATTSNFDSDKKWGFCPDQG
Consider B2, for which, in the test on THP-1 cells [3] (proteins 50 μg/ml, antibodies 25 μg/ml), the “Effect on THP-1 cell binding to immobilized KIM127” value is “did not”.

B3: MMP-2 C domain: recombinant C-terminal domain of MMP-2 (Glu438-Cys631) (protein)
chain: EICKQDIVFDGIAQIRGEIFFFKDRFIWRTVTPRDKPMGPLLVATFWPELPEKIDAVYEAPQEEKAVFFAGNEYWIYSASTLERGYPKPLTSLGLPPDVQRVDAAFNWSKNKKTYIFAGDKFWRYNEVKKKMDPGFPKLIADAWNAIPDNLDAVVDLQGGGHSYFFKGAYYLKLENQSLKSVKFGSIKSDWLGC
Turning to B3, in the test with HT1080 fibrosarcoma, the “Inhibition … by integrin and MMP domains” value is on record as “inhibited HT1080 invasion with a similar potency”. Moreover, the “Competition of 125I-labelled MMP-9 C domain binding to β5 integrin-transfected CS-1 cells” value in test [2] is “No competition”.

B4: MMP-9 C domain: recombinant C-terminal hemopexin-like domain of MMP-9 (Asp494-Asp688) (protein)
chain: DDACNVNIFDAIAEIGNQLYLFKDGKYWRFSEGRGSRPQGPFLIADKWPALPRKLDSVFEERLSKKLFFFSGRQVWVYTGASVLGPRRLDKLGLGADVAQVTGALRSGRGKMLLFSGRRLWRFDVKAQMVDPRSASEVDRMFPGVPLDTHDVFQYREKAYFCQDRFYWRVSSRSELNQVDQVGYVTYDILQCPED
Regarding B4, in the test on HT1080 fibrosarcoma, the “Inhibition … by integrin and MMP domains” value was “inhibited HT1080 invasion with a similar potency”. In addition, the “Inhibition of THP-1 cell binding to KIM127” value in the test with THP-1 cells [3] (50 μg/ml) is 40%. In addition, the “Binding of 125Iodine-labelled MMP-9 C domain to β5 integrin-transfected CS-1 cells” value in test [2] (not to the untransfected cells) was “specific binding”. Further, the “Competition of 125I-labelled MMP-9 C domain binding to β5 integrin-transfected CS-1 cells” value in test [2] is given as “competed”. Besides, the “Effect on THP-1 binding to R3F9C” value with THP-1 cells [4] is “no effect”. The “Inhibition of HT1080 cell adhesion to vitronectin or fibronectin” value with HT1080 cells is given as “Neither”.

B5: pro-MMP-9-ΔHC: pro-MMP-9 lacking the hinge region and the C domain (protein)
chain: APRQRQSTLVLFPGDLRTNLTDRQLAEEYLYRYGYTRVAEMRGESKSLGPALLLLQKQLSLPETGELDSATLKAMRTPRCGVPDLGRFQTFEGDLKWHHHNITYWIQNYSEDLPRAVIDDAFARAFALWSAVTPLTFTRVYSRDADIVIQFGVAEHGDGYPFDGKDGLLAHAFPPGPGIQGDAHFDDDELWSLGKGVVVPTRFGNADGAACHFPFIFEGRSYSACTTDGRSDGLPWCSTTANYDTDDRFGFCPSERLYTQDGNADGKPCQFPFIFQGQSYSACTTDGRSDGYRWCATTANYDRDKLFGFCPTRADSTVMGGNSAGELCVFPFTFLGKEYSTCTSEGRGDGRLWCATTSNFDSDKKWGFCPDQGYSLFLVAAHEFGHALGLDHSSVPEALMYPMYRFTEGPPLHKDDVNGIRHLYG
With B5, the “Inhibition of HT1080 cell adhesion to vitronectin or fibronectin” value with HT1080 cells is “Neither”.
